Assay results published in patent US20240166765A1 (ICONIC THERAPEUTICS, published 2024).
Positions count from the first letter of the chain named.

What was measured:
[1] = molecular target: T1, human Tissue Factor on MDA-MB-231 cells (human, UniProt P13726 33-295); assay: cell-based or functional assay
Relipidated TF = Relipidated TF (UniProt P13726 33-295, limits assumed); assay: cell-based or functional assay
[2] = molecular target: T1, human Tissue Factor on MDA-MB-231 cells; assay: flow cytometry, MDA-MB-231 cells; binding of 20 nM FVII-Fc-Alexa488 (competitor) left at 83 nM Ab
[3] = molecular target: T1, human Tissue Factor on MDA-MB-231 cells; assay: flow cytometry, MDA-MB-231 cells; binding of 20 nM FVII-Fc-Alexa488 (competitor) left at 28 nM Ab
[4] = molecular target: T1, human Tissue Factor on MDA-MB-231 cells; assay: flow cytometry, MDA-MB-231 cells; binding of 20 nM FVII-Fc-Alexa488 (competitor) left at 250 nM Ab
[5] = molecular target: T1, human Tissue Factor on MDA-MB-231 cells; assay: flow cytometry, MDA-MB-231 cells; binding of 20 nM FVII-Fc-Alexa488 (competitor) left at 9.25 nM Ab
[6] = molecular target: T1, human Tissue Factor on MDA-MB-231 cells; assay: cell-based or functional assay; remark: listed apart in the source
mouse TF ECD-His6 [7] = molecular target: T2, mouse TF ECD-His6 (mouse, UniProt P20352 29-251); assay: BLI (ForteBio Octet)
T2 construct: made in Expi293 cells; also called TF-His; mTF

mouse TF ECD-His6 [8] = molecular target: T2, mouse TF ECD-His6; assay: SPR (Biacore), antibody on chip, TF-His titrated

B1: 39A (antibody, V domains shown)
VH: QVQLVQSGAEVKKPGSSVKVSCKASGGTFSSNAIGWVRQAPGQGLEWMGSIIPIIGFANYAQKFQGRVTITADESTSTAYMELSSLRSEDTAVYYCARDSGYYYGASSFGMDVWGQGTTVTVSS
VL: EIVMTQSPATLSVSPGERATLSCRASQSVSSNLAWYQQKPGQAPRLLIYGASTRATGIPARFSGSGSGTEFTLTISSLQSEDFAVYYCEQYNNLPLTFGGGTKVEIK
notes: Human anti-TF IgG1
% IL8, 2.56 nM Ab [1]: 52% | % IL8, 6.4 nM Ab [1]: 6% | % IL8, 16 nM Ab [1]: 2% | % IL8, 40 nM Ab [1]: 2% | % IL8, 100 nM Ab [1]: 3% | TGA % ETP, 10 nM Ab, 10 min pre-incubation (Relipidated TF): 28% | TGA % ETP, 50 nM Ab, 10 min pre-incubation (Relipidated TF): 20% | TGA % Peak IIa, 10 nM Ab, 10 min pre-incubation (Relipidated TF): 9% | TGA % Peak IIa, 50 nM Ab, 10 min pre-incubation (Relipidated TF): 7% | TGA % Peak IIa, 100 nM Ab, 10 min pre-incubation (Relipidated TF): 7% | TGA ETP, 10 nM Ab, 10 min pre-incubation (Relipidated TF): 482 nM·min | TGA ETP, 50 nM Ab, 10 min pre-incubation (Relipidated TF): 346 nM·min | TGA Lag Time, 10 nM Ab, 10 min pre-incubation (Relipidated TF): 20.8 min | TGA Lag Time, 50 nM Ab, 10 min pre-incubation (Relipidated TF): 28.4 min | TGA Lag Time, 100 nM Ab, 10 min pre-incubation (Relipidated TF): 28 min | TGA Peak IIa, 10 nM Ab, 10 min pre-incubation (Relipidated TF): 25 nM | TGA Peak IIa, 50 nM Ab, 10 min pre-incubation (Relipidated TF): 17 nM | TGA Peak IIa, 100 nM Ab, 10 min pre-incubation (Relipidated TF): 17 nM | TGA ttPeak, 10 nM Ab, 10 min pre-incubation (Relipidated TF): 30.7 min | TGA ttPeak, 50 nM Ab, 10 min pre-incubation (Relipidated TF): 38.9 min | TGA ttPeak, 100 nM Ab, 10 min pre-incubation (Relipidated TF): 40.2 min | % FVIIa [2]: 2% | % FVIIa [3]: 2% | % FVIIa [4]: 2% | % FVIIa [5]: 2%

B2: 54E (antibody, V domains shown)
VH: QVQLVQSGAEVKKPGASVKVSCKASGYTFANYYMHWVRQAPGQGLEWMGIINPSGGITVYAQKFQGRVTMTRDTSTSTVYMELSSLRSEDTAVYYCARGGSKVAALAFDIWGQGTMVTVSS
VL: DIQMTQSPSSLSASVGDRVTITCQASQDISNSLNWYQQKPGKAPKLLIYDASNLETGVPSRFSGSRSGTDFTFTISSLQPEDIATYYCQQYNFHPLTFGGGTKVEIK
notes: Human anti-TF IgG1
% IL8, 2.56 nM Ab [1]: 48% | % IL8, 6.4 nM Ab [1]: 8% | % IL8, 16 nM Ab [1]: 3% | % IL8, 40 nM Ab [1]: 2% | % IL8, 100 nM Ab [1]: 2% | % FVIIa [2]: 3% | % FVIIa [3]: 3% | % FXa, 12.5 nM Ab [6]: 53% | % FXa, 25 nM Ab [6]: 44% | % FXa, 50 nM Ab [6]: 41% | % FXa, 100 nM Ab [6]: 42% | % FVIIa [4]: 2% | % FVIIa [5]: 11%

B3: 29D (antibody, V domains shown)
VH: QVQLVESGGGVVQPGRSLRLSCAASGFTFHSRGMHWVRQAPGKGLEWVAVITYDGINKYYADSVEGRFTISRDNSKNTLYLQMNSLRAEDTAVYYCARDGVYYGVYDYWGQGTLVTVSS
VL: not shown
notes: Human anti-TF IgG1
% IL8, 2.56 nM Ab [1]: 27% | % IL8, 6.4 nM Ab [1]: 6% | % IL8, 16 nM Ab [1]: 2% | % IL8, 40 nM Ab [1]: 2% | % IL8, 100 nM Ab [1]: 1% | % FVIIa [2]: 3% | % FVIIa [3]: 4% | % FXa, 12.5 nM Ab [6]: 85% | % FXa, 25 nM Ab [6]: 77% | % FXa, 50 nM Ab [6]: 75% | % FXa, 100 nM Ab [6]: 75% | % FVIIa [4]: 3% | % FVIIa [5]: 6%

B4: 29E (antibody, V domains shown)
VH: B3 VH with H30R, R32Y
VL: not shown
notes: Human anti-TF IgG1
% IL8, 2.56 nM Ab [1]: 33% | % IL8, 6.4 nM Ab [1]: 5% | % IL8, 16 nM Ab [1]: 2% | % IL8, 40 nM Ab [1]: 2% | % IL8, 100 nM Ab [1]: 2% | TGA % ETP, 10 nM Ab, 10 min pre-incubation (Relipidated TF): 73% | TGA % ETP, 50 nM Ab, 10 min pre-incubation (Relipidated TF): 68% | TGA % ETP, 100 nM Ab, 10 min pre-incubation (Relipidated TF): 64% | TGA % Peak IIa, 10 nM Ab, 10 min pre-incubation (Relipidated TF): 30% | TGA % Peak IIa, 50 nM Ab, 10 min pre-incubation (Relipidated TF): 27% | TGA % Peak IIa, 100 nM Ab, 10 min pre-incubation (Relipidated TF): 26% | TGA ETP, 10 nM Ab, 10 min pre-incubation (Relipidated TF): 1250 nM·min | TGA ETP, 50 nM Ab, 10 min pre-incubation (Relipidated TF): 1170 nM·min | TGA ETP, 100 nM Ab, 10 min pre-incubation (Relipidated TF): 1100 nM·min | TGA Lag Time, 10 nM Ab, 10 min pre-incubation (Relipidated TF): 10.4 min | TGA Lag Time, 50 nM Ab, 10 min pre-incubation (Relipidated TF): 14.2 min | TGA Lag Time, 100 nM Ab, 10 min pre-incubation (Relipidated TF): 15.1 min | TGA Peak IIa, 10 nM Ab, 10 min pre-incubation (Relipidated TF): 78 nM | TGA Peak IIa, 50 nM Ab, 10 min pre-incubation (Relipidated TF): 70 nM | TGA Peak IIa, 100 nM Ab, 10 min pre-incubation (Relipidated TF): 68 nM | TGA ttPeak, 10 nM Ab, 10 min pre-incubation (Relipidated TF): 20.2 min | TGA ttPeak, 50 nM Ab, 10 min pre-incubation (Relipidated TF): 24.3 min | TGA ttPeak, 100 nM Ab, 10 min pre-incubation (Relipidated TF): 25.3 min | % FVIIa [2]: 2% | % FVIIa [3]: 3% | % FXa, 12.5 nM Ab [6]: 81% | % FXa, 25 nM Ab [6]: 68% | % FXa, 50 nM Ab [6]: 63% | % FXa, 100 nM Ab [6]: 66% | % FVIIa [4]: 2% | % FVIIa [5]: 5%

B5: 1F (antibody, V domains shown)
VH: EVQLLESGGGLVQPGGSLRLSCAASGFTFSDYAMGWVRQAPGKGLEWVSTISGSGGLTYYADSVKGRFTISRDNSKNTLYLQMNSLRAEDTAVYYCAKAPYGYYMDVWGKGTTVTVSS
VL: not shown
notes: Human anti-TF IgG1
% IL8, 2.56 nM Ab [1]: 18% | % IL8, 6.4 nM Ab [1]: 3% | % IL8, 16 nM Ab [1]: 2% | % IL8, 40 nM Ab [1]: 2% | % IL8, 100 nM Ab [1]: 2% | TGA % ETP, 10 nM Ab, 10 min pre-incubation (Relipidated TF): 31% | TGA % Peak IIa, 10 nM Ab, 10 min pre-incubation (Relipidated TF): 10% | TGA % Peak IIa, 50 nM Ab, 10 min pre-incubation (Relipidated TF): 7% | TGA % Peak IIa, 100 nM Ab, 10 min pre-incubation (Relipidated TF): 7% | TGA ETP, 10 nM Ab, 10 min pre-incubation (Relipidated TF): 540 nM·min | TGA Lag Time, 10 nM Ab, 10 min pre-incubation (Relipidated TF): 18.8 min | TGA Lag Time, 50 nM Ab, 10 min pre-incubation (Relipidated TF): 27.6 min | TGA Lag Time, 100 nM Ab, 10 min pre-incubation (Relipidated TF): 30.3 min | TGA Peak IIa, 10 nM Ab, 10 min pre-incubation (Relipidated TF): 27 nM | TGA Peak IIa, 50 nM Ab, 10 min pre-incubation (Relipidated TF): 20 nM | TGA Peak IIa, 100 nM Ab, 10 min pre-incubation (Relipidated TF): 17 nM | TGA ttPeak, 10 nM Ab, 10 min pre-incubation (Relipidated TF): 28.6 min | TGA ttPeak, 50 nM Ab, 10 min pre-incubation (Relipidated TF): 38.9 min | TGA ttPeak, 100 nM Ab, 10 min pre-incubation (Relipidated TF): 42 min | % FVIIa [2]: 7% | % FVIIa [3]: 7% | % FVIIa [4]: 6% | % FVIIa [5]: 7%

B6: 1G (antibody, V domains shown)
VH: B5 VH with D31S, G35A, T50A
VL: not shown
notes: Human anti-TF IgG1
% IL8, 2.56 nM Ab [1]: 26% | % IL8, 6.4 nM Ab [1]: 4% | % IL8, 16 nM Ab [1]: 3% | % IL8, 40 nM Ab [1]: 2% | % IL8, 100 nM Ab [1]: 2% | % FVIIa [2]: 7% | % FVIIa [3]: 7% | % FXa, 12.5 nM Ab [6]: 55% | % FXa, 25 nM Ab [6]: 48% | % FXa, 50 nM Ab [6]: 41% | % FXa, 100 nM Ab [6]: 41% | % FVIIa [4]: 6% | % FVIIa [5]: 7%

B7: 43D7 (antibody, human IgG1, kappa, V domains shown)
VH: QVQLQQWGAGLLKPSETLSLTCAVYGGSLSGYYWSWIRQPPGKGLEWIGEIGASGSTRYNPSLKSRVTISVDTSKNQFSLKLSSVTAADTAVYYCARDTPYYYEGGYYYYMDVWGKGTTVTVSS
VL: EIVLTQSPGTLSLSPGERATLSCRASDSVDSSYLAWYQQKPGQAPRLLIYGAFSRANGIPDRFSGSGSGTDFTLTISRLEPEDFAVYYCQQAGVVPYTFGGGTKVEIKR
notes: human IgG1
Kd (mouse TF ECD-His6 [7]): 41.4 nM | Kd (mouse TF ECD-His6 [8]): 21 nM

B8: 43D8 (antibody, human IgG1, kappa, V domains shown)
VH: B7 VH
VL: B7 VL with D27Q, D30S, Y33F, F53Y, N57T
notes: human IgG1; also called 43D8 mAb; test article
Kd (mouse TF ECD-His6 [7]): 6.12 nM | Kd (mouse TF ECD-His6 [8]): 2.4 nM
